The record followed here is patent US20220372111A1.

Assay [1] concerns the target LDL receptor-related protein 1 (LRP1), purified from human placenta (human) (UniProt Q07954). The assay can be described thus: SPR equilibrium KD relative to I91L PAI-1.
The target is the same in assay [2]. The assay can be described thus: SPR equilibrium analysis, LRP1 immobilised.

Chain of UniProt Q07954 (Q07954 20-4544): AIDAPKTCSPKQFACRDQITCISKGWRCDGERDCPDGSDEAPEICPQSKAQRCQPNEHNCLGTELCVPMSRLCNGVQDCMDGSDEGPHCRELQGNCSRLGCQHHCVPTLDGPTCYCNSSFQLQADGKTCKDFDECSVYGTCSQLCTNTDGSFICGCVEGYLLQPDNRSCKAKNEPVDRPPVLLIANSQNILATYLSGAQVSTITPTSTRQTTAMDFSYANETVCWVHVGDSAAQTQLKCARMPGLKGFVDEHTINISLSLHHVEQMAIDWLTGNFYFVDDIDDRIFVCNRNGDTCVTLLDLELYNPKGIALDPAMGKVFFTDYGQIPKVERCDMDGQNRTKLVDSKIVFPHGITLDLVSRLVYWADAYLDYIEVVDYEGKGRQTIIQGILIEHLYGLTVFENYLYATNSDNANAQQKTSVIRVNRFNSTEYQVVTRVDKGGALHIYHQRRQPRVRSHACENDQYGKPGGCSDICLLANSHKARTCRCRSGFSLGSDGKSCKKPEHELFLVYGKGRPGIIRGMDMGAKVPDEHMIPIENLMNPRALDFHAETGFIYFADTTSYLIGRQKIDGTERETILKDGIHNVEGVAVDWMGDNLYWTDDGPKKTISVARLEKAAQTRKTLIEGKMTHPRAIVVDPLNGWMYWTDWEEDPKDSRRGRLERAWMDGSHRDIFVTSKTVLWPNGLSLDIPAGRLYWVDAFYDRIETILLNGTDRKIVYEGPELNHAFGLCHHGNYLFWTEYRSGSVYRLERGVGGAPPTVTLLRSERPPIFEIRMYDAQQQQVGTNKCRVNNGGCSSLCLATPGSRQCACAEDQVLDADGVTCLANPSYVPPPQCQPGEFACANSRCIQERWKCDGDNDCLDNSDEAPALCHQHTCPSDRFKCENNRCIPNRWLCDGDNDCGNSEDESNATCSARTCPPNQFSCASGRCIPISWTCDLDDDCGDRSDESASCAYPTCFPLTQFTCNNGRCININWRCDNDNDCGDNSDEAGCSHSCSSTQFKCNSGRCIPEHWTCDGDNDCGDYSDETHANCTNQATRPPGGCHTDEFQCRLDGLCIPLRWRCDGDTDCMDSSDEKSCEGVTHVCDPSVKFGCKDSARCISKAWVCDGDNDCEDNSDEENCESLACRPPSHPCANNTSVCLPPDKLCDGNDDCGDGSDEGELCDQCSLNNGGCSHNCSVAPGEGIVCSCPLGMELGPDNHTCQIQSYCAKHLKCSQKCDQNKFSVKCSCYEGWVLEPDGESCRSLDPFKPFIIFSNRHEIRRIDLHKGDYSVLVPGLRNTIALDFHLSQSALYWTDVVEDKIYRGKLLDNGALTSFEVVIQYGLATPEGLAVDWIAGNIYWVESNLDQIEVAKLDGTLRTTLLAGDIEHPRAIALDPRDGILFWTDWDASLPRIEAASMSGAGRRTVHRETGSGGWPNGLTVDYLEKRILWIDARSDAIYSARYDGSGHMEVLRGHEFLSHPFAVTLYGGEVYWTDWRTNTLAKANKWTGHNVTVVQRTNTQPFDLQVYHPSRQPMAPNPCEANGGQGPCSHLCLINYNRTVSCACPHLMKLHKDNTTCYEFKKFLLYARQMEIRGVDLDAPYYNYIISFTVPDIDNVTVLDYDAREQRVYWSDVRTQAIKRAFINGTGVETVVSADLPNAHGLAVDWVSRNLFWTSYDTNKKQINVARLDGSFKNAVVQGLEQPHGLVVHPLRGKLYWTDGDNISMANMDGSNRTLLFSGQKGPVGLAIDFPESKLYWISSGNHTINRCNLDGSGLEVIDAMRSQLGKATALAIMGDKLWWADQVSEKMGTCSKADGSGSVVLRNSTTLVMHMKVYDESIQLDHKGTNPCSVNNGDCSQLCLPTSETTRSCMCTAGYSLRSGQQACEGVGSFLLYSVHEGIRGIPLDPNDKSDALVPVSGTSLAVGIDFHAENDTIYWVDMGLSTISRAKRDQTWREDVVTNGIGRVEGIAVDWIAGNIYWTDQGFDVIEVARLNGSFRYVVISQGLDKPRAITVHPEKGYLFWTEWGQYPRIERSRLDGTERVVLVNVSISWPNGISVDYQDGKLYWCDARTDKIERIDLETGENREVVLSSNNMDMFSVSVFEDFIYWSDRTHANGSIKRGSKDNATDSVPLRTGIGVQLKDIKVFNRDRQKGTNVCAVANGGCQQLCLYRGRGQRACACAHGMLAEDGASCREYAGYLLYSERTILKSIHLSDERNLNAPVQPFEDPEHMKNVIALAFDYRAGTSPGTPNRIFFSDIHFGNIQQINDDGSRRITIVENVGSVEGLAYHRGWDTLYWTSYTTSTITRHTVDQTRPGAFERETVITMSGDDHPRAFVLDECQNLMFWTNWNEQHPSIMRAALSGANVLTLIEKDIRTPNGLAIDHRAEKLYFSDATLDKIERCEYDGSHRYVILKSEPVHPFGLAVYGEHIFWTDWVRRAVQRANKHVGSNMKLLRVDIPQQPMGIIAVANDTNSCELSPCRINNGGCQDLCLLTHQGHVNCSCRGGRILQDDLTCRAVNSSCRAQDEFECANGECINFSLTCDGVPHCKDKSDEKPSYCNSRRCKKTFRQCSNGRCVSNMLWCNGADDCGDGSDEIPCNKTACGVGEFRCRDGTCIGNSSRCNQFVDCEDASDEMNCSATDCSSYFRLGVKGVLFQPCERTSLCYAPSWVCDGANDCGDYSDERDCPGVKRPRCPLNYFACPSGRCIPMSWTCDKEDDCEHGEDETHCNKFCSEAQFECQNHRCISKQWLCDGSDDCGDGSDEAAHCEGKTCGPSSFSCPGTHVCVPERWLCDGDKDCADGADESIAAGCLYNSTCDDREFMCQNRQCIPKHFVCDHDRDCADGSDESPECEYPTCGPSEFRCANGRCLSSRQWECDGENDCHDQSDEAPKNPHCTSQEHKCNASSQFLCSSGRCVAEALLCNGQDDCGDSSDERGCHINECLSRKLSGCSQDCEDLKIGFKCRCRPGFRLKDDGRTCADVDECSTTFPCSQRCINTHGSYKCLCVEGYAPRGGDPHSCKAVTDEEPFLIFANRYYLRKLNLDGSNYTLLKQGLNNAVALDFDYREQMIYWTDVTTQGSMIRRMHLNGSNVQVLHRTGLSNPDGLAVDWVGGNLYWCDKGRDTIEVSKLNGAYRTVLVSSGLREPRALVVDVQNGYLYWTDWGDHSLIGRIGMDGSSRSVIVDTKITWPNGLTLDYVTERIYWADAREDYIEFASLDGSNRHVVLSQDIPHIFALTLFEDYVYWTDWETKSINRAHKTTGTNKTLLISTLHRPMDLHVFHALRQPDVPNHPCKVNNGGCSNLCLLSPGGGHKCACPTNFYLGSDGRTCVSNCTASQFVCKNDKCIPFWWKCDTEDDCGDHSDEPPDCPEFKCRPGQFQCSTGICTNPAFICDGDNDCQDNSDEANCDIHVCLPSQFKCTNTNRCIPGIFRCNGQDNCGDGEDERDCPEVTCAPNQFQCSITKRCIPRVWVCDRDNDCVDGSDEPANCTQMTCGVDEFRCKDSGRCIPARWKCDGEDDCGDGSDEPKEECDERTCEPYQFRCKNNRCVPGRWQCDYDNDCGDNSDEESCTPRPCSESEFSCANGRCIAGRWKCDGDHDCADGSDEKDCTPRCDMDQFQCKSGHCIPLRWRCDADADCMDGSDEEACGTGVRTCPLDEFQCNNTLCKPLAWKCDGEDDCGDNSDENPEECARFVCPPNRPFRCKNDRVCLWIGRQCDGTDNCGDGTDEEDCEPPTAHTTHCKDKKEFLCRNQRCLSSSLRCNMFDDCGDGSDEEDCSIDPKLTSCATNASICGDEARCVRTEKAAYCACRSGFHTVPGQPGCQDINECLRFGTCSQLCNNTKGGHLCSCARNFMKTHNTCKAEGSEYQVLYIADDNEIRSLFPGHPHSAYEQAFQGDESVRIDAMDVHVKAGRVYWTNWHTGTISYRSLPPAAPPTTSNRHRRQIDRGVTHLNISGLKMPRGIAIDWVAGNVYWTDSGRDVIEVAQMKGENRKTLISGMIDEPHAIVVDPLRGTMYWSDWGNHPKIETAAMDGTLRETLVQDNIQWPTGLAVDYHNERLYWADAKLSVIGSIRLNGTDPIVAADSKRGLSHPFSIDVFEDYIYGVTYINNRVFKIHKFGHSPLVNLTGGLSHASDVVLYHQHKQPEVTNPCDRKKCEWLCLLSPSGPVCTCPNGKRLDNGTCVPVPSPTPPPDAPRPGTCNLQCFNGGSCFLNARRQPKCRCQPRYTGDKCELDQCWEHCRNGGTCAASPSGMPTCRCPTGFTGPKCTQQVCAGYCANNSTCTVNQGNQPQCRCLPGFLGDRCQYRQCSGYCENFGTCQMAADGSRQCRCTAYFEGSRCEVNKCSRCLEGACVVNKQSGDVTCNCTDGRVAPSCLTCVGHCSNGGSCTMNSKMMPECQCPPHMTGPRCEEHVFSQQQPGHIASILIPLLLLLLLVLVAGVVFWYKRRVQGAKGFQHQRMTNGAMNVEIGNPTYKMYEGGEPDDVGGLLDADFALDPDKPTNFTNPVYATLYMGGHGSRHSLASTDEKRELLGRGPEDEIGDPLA

As for “14-1B R76E PAI-1 (from UniProt P05121 24-402)”, the Fold change in assay [1] stood at 32 fold. Moreover, the Kd (in general, the constant that tells how readily two partners part at equilibrium) in assay [2] is 1.77 µM.
